Patent US20240301052A1 (LANOVA MEDICINES DEVELOPMENT, published 2024)
Where two headings read alike, the source gives them in different places.

T1: human SLC34A2 (human, UniProt O95436 1-690)
T1 sequence (looked up): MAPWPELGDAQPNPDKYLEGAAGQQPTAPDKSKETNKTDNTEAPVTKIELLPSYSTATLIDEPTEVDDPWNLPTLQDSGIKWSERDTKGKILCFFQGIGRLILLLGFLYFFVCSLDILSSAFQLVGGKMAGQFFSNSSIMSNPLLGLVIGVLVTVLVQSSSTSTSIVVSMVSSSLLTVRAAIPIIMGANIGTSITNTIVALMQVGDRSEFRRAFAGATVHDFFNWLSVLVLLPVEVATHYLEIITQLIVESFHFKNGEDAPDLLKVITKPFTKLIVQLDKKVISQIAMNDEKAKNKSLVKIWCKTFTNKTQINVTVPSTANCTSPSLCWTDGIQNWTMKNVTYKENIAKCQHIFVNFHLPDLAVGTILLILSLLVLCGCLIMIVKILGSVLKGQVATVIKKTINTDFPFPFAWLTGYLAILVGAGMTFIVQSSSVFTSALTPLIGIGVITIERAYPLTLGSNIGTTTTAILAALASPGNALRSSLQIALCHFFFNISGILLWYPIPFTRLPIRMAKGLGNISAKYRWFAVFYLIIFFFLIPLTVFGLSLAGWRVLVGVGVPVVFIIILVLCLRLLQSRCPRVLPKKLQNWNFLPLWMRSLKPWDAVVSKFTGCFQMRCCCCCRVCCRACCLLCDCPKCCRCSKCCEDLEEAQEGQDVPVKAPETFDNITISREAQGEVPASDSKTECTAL

T2: Rhesus SLC34A2 (Rhesus, UniProt F7HDA3 1-690)
T2 construct: whole, on cells
T2 sequence: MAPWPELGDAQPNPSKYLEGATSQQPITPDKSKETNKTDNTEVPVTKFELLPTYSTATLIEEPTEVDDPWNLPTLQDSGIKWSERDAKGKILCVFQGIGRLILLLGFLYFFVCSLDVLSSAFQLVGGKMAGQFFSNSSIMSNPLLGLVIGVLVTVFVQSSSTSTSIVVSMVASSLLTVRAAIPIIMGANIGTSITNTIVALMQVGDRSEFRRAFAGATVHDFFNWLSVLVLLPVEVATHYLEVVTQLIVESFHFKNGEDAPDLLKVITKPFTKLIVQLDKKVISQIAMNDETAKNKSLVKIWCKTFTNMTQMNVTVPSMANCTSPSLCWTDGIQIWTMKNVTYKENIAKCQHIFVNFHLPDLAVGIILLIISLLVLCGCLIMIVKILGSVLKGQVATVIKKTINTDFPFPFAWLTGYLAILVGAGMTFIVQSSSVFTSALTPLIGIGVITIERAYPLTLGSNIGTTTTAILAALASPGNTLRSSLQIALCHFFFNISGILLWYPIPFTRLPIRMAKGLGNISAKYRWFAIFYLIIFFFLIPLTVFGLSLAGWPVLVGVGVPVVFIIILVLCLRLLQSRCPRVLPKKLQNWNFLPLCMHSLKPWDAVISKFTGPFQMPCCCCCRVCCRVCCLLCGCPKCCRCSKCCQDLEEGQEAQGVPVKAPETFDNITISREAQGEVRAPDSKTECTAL


Tests used:
human SLC34A2 [1] = target: T1, human SLC34A2; assay: FACS, OVCAR3 cells
human SLC34A2 [2] = target: T1, human SLC34A2; assay: cell-based or functional assay
human SLC34A2 [3] = target: T1, human SLC34A2; assay: FACS, OVCAR3 cells
Procedure, shortened: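 Flow cytometry binding: cells (OVCAR3, or HEK293 transfected with human SLC34A2) exposed 60 min at 4° C to chimeric hIgG1, 8-point 4-fold series starting 200 nM. Washed, stained 30 min at 4° C with fluorescent anti-human secondary, then analysed.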

human SLC34A2 [4] = target: T1, human SLC34A2; assay: cell-based or functional assay; remark: listed apart in the source
human SLC34A2 [5] = target: T1, human SLC34A2; assay: FACS, HEK293/human SLC34A2 cells
Experimental: Briefly, OVCAR3 cells or HEK293 cells expressing human SLC34A2 were incubated with chimeric antibodies (from 200 nM, 4 folds dilution, 8 points). After incubation at 4° C. for 60 minutes, the cells were washed with FACS buffer twice, then stained with fluorescent conjugated secondary antibody at 4° C. for 30 minutes. After that the cells were washed twice and analyzed by flow cytometry.

Rhesus SLC34A2 [6] = target: T2, Rhesus SLC34A2; assay: FACS, HEK293/Rhesus SLC34A2 cells
human SLC34A2 [7] = target: T1, human SLC34A2; assay: FACS, RMG-1 cells
Procedure, shortened: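 Flow-cytometric binding of chimeric antibodies (8-point, 4-fold dilutions from 200 nM) to RMG-1 cells, 60 min at 4° C, followed by fluorescent secondary antibody for 30 min at 4° C.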

human SLC34A2 [8] = target: T1, human SLC34A2; assay: FACS, OVCAR3 cells; remark: listed apart in the source
Rhesus SLC34A2 [9] = target: T2, Rhesus SLC34A2; assay: FACS, HEK293/Rhesus SLC34A2 cells; remark: listed apart in the source
human SLC34A2 [10] = target: T1, human SLC34A2; assay: FACS, OVCAR3 cells; remark: listed apart in the source
human SLC34A2 [11] = target: T1, human SLC34A2; assay: FACS, HEK293/human SLC34A2 cells; remark: listed apart in the source
Experimental: (§1) In another testing, cell based binding of hu Abs on human SLC34A2 expressing cells were assessed using flow cytometry. Briefly, the HEK293/H_SLC34A2, OVCAR3 and RMG-1 cells were incubated with hu Abs. After incubation at 4° C. for 60 minutes, the cells were washed with FACS buffer twice, then stained with fluorescent conjugated secondary antibody at 4° C. for 30 minutes. After that the cells were washed twice and analyzed by flow cytometry.

human SLC34A2 [12] = target: T1, human SLC34A2; assay: FACS, RMG-1 cells; remark: listed apart in the source
Experimental: as §1

human SLC34A2 [13] = target: T1, human SLC34A2; assay: FACS, HEK293/human SLC34A2 cells; remark: listed apart in the source
Experimental: The PTM-derisked VH chains were first tested for their impact on target binding. Cell based binding of PTM Abs on human SLC34A2 expressing cells were assessed using flow cytometry. Briefly, the HEK293/H_SLC34A2 cells were incubated with PTM Abs (from 200 nM, 4 folds dilution, 8 points). After incubation at 4° C. for 60 minutes, the cells were washed with FACS buffer twice, then stained with fluorescent conjugated secondary antibody at 4° C. for 30 minutes. After that the cells were washed twice and analyzed by flow cytometry.

human SLC34A2 [14] = target: T1, human SLC34A2; assay: cell-based or functional assay; remark: listed apart in the source
human SLC34A2 [15] = target: T1, human SLC34A2; assay: FACS, OVCAR3 cells; remark: listed apart in the source
Experimental: as §1

Rhesus SLC34A2 [16] = target: T2, Rhesus SLC34A2; assay: FACS, HEK293/Rhesus SLC34A2 cells; remark: listed apart in the source
human SLC34A2 [17] = target: T1, human SLC34A2; assay: FACS, OVCAR3 cells; remark: listed apart in the source
Experimental: The binding of these humanized antibodies to OVCAR3 cells was evaluated as described above, and the results are shown in FIG. 12A-D and Tables 16A-D.

human SLC34A2 [18] = target: T1, human SLC34A2; assay: FACS, OVCAR3 cells; remark: listed apart in the source

| EC50 (human SLC34A2 [8]) | Top (MFI) (human SLC34A2 [8]) | EC50 (Rhesus SLC34A2 [9]) | Top (MFI) (Rhesus SLC34A2 [9]) | EC50 (human SLC34A2 [11]) | Top (human SLC34A2 [11]) | EC50 (human SLC34A2 [12]) | Top (human SLC34A2 [12]) | EC50 (human SLC34A2 [13]) | Top (MFI) (human SLC34A2 [13]) | ADCC reporter EC50 (human SLC34A2 [14]) | ADCC reporter Top (MFI) (human SLC34A2 [14]) | EC50 (human SLC34A2 [15]) | EC50 (Rhesus SLC34A2 [16]) | Top (MFI) (Rhesus SLC34A2 [16]) | Molecule | other results |
| --- | --- | --- | --- | --- | --- | --- | --- | --- | --- | --- | --- | --- | --- | --- | --- | --- |
|  |  |  |  |  |  |  |  |  |  |  |  |  |  |  | hIgG1 Isotype (antibody) | EC50 (human SLC34A2 [1]): 2900 nM; Top (MFI) (human SLC34A2 [1]): 1570 MFI |
|  |  |  |  |  |  |  |  |  |  |  |  |  |  |  | xi71F7D4 hIgG1 (antibody, V domains shown, chimeric, hIgG1) VH: DVKLVESGGDLVKLGGSLKLSCAASGFTFSNYYMSWVRQTPEKRLELVAVINSNGGTTYYPDNMKGRFTISRDNAKNTLYLQTSSLKSEDTALYYCGRHEHYYGTNIAWFAYWGQGTLVTVSA VL: DIVMTQSHKFMSTSVGDRVSITCKASQDVTTAVAWYQQKPGQSPKLLIYWASTRHTGVPDRFTGSGSGTDHTLTISSVQAEDLALYYCQQHYSTPVTFGGGTKLEIK | cytotoxicity EC50 (human SLC34A2 [2]): 0.83 nM; cytotoxicity Inhibition % (human SLC34A2 [2]): 99.4%; EC50 (human SLC34A2 [3]): 7.86 nM; Top (MFI) (human SLC34A2 [3]): 28900 MFI; ADCC reporter EC50 (human SLC34A2 [4]): 3.6 nM; ADCC reporter Top (MFI) (human SLC34A2 [4]): 247000 MFI; EC50 (human SLC34A2 [5]): 2.11 nM; Top (MFI) (human SLC34A2 [5]): 47900 MFI; Top (MFI) (Rhesus SLC34A2 [6]): 5.4e+06 MFI; EC50 (human SLC34A2 [7]): 8.36 nM; Top (MFI) (human SLC34A2 [7]): 10200 MFI |
| 1 nM | 63500 MFI | 2.8 nM | 26400 MFI | 2.29 nM | 32300 MFI | 1.09 nM | 9690 MFI | 0.68 nM | 28200 MFI | 3.31 nM | 143000 MFI | 1.1 nM | 0.8 nM | 7970 MFI | 91C9F1.p1 hIgG1 (antibody, V domains shown, PTM-derisked chimeric, hIgG1; also called 91C9F1.pl hIgG1) VH: EVQLQQSGPELVKPGTSVKISCKTSGFFFTEYIIHWVKQSHGRSLEWIGGIIPNNDVTNYKQNFRGKAALTADKSSNTAYMELRSLTSEDSAVYYCARWRNAYYSAMDSWGQGTSVTVSS VL: DIVVTQSHKFMSTSLGDRVSITCTASQDVGTAVAWYQQKPGHSPKLLIYWASTRHTGVPERFTGSGSGTDFTLTITNVQSEDLADYFCQQYRTSPLTFGVGTKLELK | EC50 (human SLC34A2 [10]): 2.29 nM; Top (MFI) (human SLC34A2 [10]): 32300 MFI; Top (human SLC34A2 [15]): 19500 MFI |
| 9.1 nM | 72500 MFI | 4.3 nM | 36500 MFI | 9.08 nM | 35700 MFI | 14.8 nM | 11200 MFI | 2.73 nM | 30800 MFI | 4.23 nM | 122000 MFI | 6.98 nM | 5 nM | 14400 MFI | 62G10E4G8 VH_P3/VL hIgG1 (antibody, V domains shown, PTM-derisked chimeric, hIgG1; that P3 is the NA version follows from the humanized .p3 chains; also called 62G10E4G8.p3 hIgG1) VH: QVQLQQSGAEVVKPGASVKMSCKASGYTFPSYITHWVKQTPGQGLEWIGAIYPGNADTSYIQKFKGKATLTADKSSSTAYMQLSSLTSEDSAVYYCARGTYGTSAWFTYWGQGTLVTVSA VL: DIVLTQSPATLSVTPGDSVSLSCRARQNIGNNLYWYQQKSHESPRLLIKYASQSISGIPSRFSGSGSGTDFTLTINSVETEDFGVYFCQQSFSWPLTFGAGTKLELK | EC50 (human SLC34A2 [17]): 6.98 nM; Top (MFI) (human SLC34A2 [17]): 30300 MFI |
| 7.5 nM | 75200 MFI | 3.9 nM | 39400 MFI | 2.79 nM | 35600 MFI | 12.5 nM | 11700 MFI | 1.48 nM | 30400 MFI | 2.83 nM | 114000 MFI | 4.03 nM | 0.7 nM | 13800 MFI | 63A11D5B4 VH_P1/VL hIgG1 (antibody, V domains shown, PTM-derisked chimeric, hIgG1; that P1 is the SG version follows from the humanized .p1 chains; also called 63A11D5B4.p1 hIgG1) VH: QVQLQQPGAELVKPGASVKMSCRTSGYTFITYNMHWVKQTPGQGREWIGAIYPGSGDTSYNQKFKGKATLTADKSSSTAYMQLNSLTSEDSAVYYCSISTIITTGAVDYWGQGTSVTVAS VL: DIVMTQSHKFMSTSVGDRVSITCKASQDVGTAVAWYQQKAGQSPKLLIYWTSTRHTGVPDRFTGSGSGTDFTLIIRSLQSEDLADYFCQQYSRIPLTFGSGTKLEIK | EC50 (human SLC34A2 [18]): 4.03 nM; Top (MFI) (human SLC34A2 [18]): 28200 MFI |
